This series can be described thus: label from the status in PepcDB records.

As for “MTVIERFKSNLKGKQNLINFGFILIGLFGCYLLIAWASYSPLDNAWSTASSVTHDTVLNKTGKLGAWLIDLLYAFLGNVAFVVPFVLFSFAIYALIFRIAEQWKWRNLLLQIGSFILLLIGLSGIASVLLPNSAYYLAGGFVGGMLQSLLNGIIGQVGLLLLSTVLMSIGFYFCSGQLLFSLGIQFYQWLFIKKPQSNTILEAANPHLNAQNNETTKSIVANPSENAHVDQLVTHENATEQLTDVSAFTRPTIHGLKSSSTLNTDKTKYNQVNAQPLTDPMMFKIEKKVILPKINMQHPENELTNLSMEQTNSIDNLEIRLPKVHLNTAVTNPEIKTVEHHAQNRPLEMPTQIQPVFDQPITPTISLNVEDQPLDIESNEAQLAEEFAAAEQMRLANMEQRAKAEGLEETFNQIITSPTLTVSINESSEQPTEKDLNPTHHDNGANYPKGYGKTLLHPLLQRNNVVEKPTTPLPTLELLAKNPVQTQQITEQEIFDTSHRLENALANYNVKATVEDVLVGPVVTRYEIKPAAGIKANKVTALANDLARELMFKAIRITEVVPGKPYMGIETPNTHRQTVWLRDVLDSEAFRHTQATLPMALGKDISGQPIVVDMAKMPHLLVAGQTGGGKSVGINTMILSLLFKLTPEQVRFIMIDPKVVELSVYNDIPHLLTPVVTDMKKAANALRWAVGEMERRYLLISHLQVRNIEGYNDKIDQASAMNFPIPDPTWRPADSIGQLPPPLTKLSYIVLIVDEFADLIMSAGKEVEEYIMRIAQKARAVGIHLILATQRPSTDVITGVIKANIPSRIAFTVASQIDSRTILDAGGAEALLGRGDMLYSASGSPEIMRIHGAFMSDEEVQRIADNWRARGKPQYLDSVVASHEDENDSRTNTITELDPLFDEIVAYVIESGVTSISGIQRRFSLGFNRAGRIIDQMEAQAIISEPGKGGKREVLAR”, the protein production result is “failed”.
As to “MTVITLMLVLFEVVFSVSIYRYYYNGIVQYIESHAKTSTRFFSEYNSLYFIRLQEYSGDIISSFQLEGTELQLIDRHGSVIQSSSGEKVEGKVNIPQSLLEGEMYNQVTTKGNKKQLEVLSPLIHQGQTIGVLKYTTVLTNVNKKIIEIITFTISVGIVISGVVFLISRRLANSFVEPIESIIQASSQIAEGTLKQKIKEDYPGELGDLAHSLNYMAYKIDKAEQMKNEFIASISHEIRTPLTGIKGWSETLKTVDHLTEEEIKQGMGIISGETDRLIHLVEELLDFSRLQSNHFNLYKQKVQLYDILEETIWQLTPKSEEKEIQFITTIDRMELMGDRNRLKQVFLNIVQNAIKYSHKKSTIHIEATKIEGQAVIKVRDEGIGIAKEHLPYIEQSFYQINNHAAGAGIGLAIVKKMVELHSGVLSVTSKEGIGTTILIKLPL”, the protein production entry is reported as “failed”.
In the case of “MTVLKGDNLEILKTIESSSIDLIYMDPPFFTQKTQKLSNNKNIMYSFEDTWTSIEDYKEFLSVRLEECKRVLKNSGSIFVHCDKIANHHIRLILDNIFGVDMFQSEIIWNYKRWSNSKKGLLNNHQNIYFYSKSKDFKFNTIFTEYSSTTNIDQILVERKRDGNSKTIYKVDNNGNYILAKEKNGVPLSDVWNIPFLNPKAKERVGYPTQKPILLLEQIIKIATDKNDIVLDPFCGSGTTLVASKILNRNYMGIDLSEEAINITQQRLENVIKTSSNLLNKGIE” it was “failed”; in that of “MTVLSPSLPHAAGIDAALVENPWLGLRRSGRYFQNAETEALFARALGYARAGVCVHLAGPAGLGKTTLALRIAQALGRPVAFMTGNEWLGSRDFIGGEIGQTVTSVVDRYIQSVRRTEQSARIDWKESILGQAMRCGQTFIYDEFTRASPEANAALLSVLEEGVLVSTDGASRHQYIEAHPDFRVLLTSNPHEYQGVKAAPDALIDRMVTLRLEEPSAPTLAGIVALRSGLDPATARRIVDLILSVQRSGEMQAPPSMRTAILVARLAAPLRLAGRLSDAALAEIAADVLRGRGLEADAAAFEAKLAAPTPGETARLEHHHHHH”, “failed”; in that of “MTVNVYDLANELERGIRALPEYQALVQAKAKIDEDEEAKKLWTEFTEFQMKIQGLIQTGQAPTPEVQTEMQSFNQKIEANPLLKEYATAQQALGVYVNDIERIIFSPLQDIAK”, “not failed”.
In the case of “MTVPEEAQTLIGKHYRAPDHFLVGREKIREFAVAVKDDHPTHYSEPDAAAAGYPALVAPLTFLAIAGRRVQLEIFTKFNIPINIARVFHRDQKFRFHRPILANDKLYFDTYLDSVIESHGTVLAEIRSEVTDAEGKPVVTSVVTMLGLEHHHHHH” it was “failed”; in that of “MTVQRREKGSSITRVLEIIEAISRAERPMSPAELAFLLDIPKPSIHRLLQQLEADNYVQINMRGLLVPGDRMHSIALGVLHSSRFKALRQAILKKLAETIGETCGIAIPDGIEMIYYDRVQTNWPLRVNLPVGSHTPVACTASGKLYLSSLPKERRHRIIGKLSLEKLARNTLIESESLEKELINIQANELGTDNEEFIDGMVACSVPIKDQDGKLFACLFTHAPVIRKSLDELLAFEPALRHAAIELGDLLKEQ”, “failed”.
In the case of “MTVSGPGTPEPRPATPGASSVEQLRKEGNELFKCGDYGGALAAYTQALGLDATPQDQAVLHRNRAACHLKLEDYDKAETEASKAIEKDGGDVKALYRRSQALEKLGRLDQAVLDLQRCVSLEPKNKVFQEALRNIGGQIQEKVRYMSSTDAKVEQMFQILLDPEEKGTEKKQKASQNLVVLAREDAGAEKIFRSNGVQLLQRLLDMGETDLMLAALRTLVGICSEHQSRTVATLSILGTRRVVSILGVESQAVSLAACHLLQVMFDALKEGVKKGFRGKEGAIIVDPARELKVLISNLLDLLTEVGVSGQGRDNALTLLIKAVPRKSLKDPNNSLTLWVIDQGLKKILEVGGSLQDPPGELAVTANSRMSASILLSKLFDDLKCDAERENFHRLCENYIKSWFEGQGLAGKLRAIQTVSCLLQGPCDAGNRALELSGVMESVIALCASEQEEEQLVAVEALIHAAGKAKRASFITANGVSLLKDLYKCSEKDSIRIRALVGLCKLGSAGGTDFSMKQFAEGSTLKLAKQCRKWLCNDQIDAGTRRWAVEGLAYLTFDADVKEEFVEDAAALKALFQLSRLEERSVLFAVASALVNCTNSYDYEEPDPKMVELAKYAKQHVPEQHPKDKPSFVRARVKKLLAAGVVSAMVCMVKTESPVLTSSCRELLSRVFLALVEEVEDRGTVVAQGGGRALIPLALEGTDVGQTKAAQALAKLTITSNPEMTFPGERIYEVVRPLVSLLHLNCSGLQNFEALMALTNLAGISERLRQKILKEKAVPMIEGYMFEEHEMIRRAATECMCNLAMSKEVQDLFEAQGNDRLKLLVLYSGEDDELLQRAAAGGLAMLTSMRPTLCSRIPQVTTHWLEILQALLLSSNQELQHRGAVVVLNMVEASREIASTLMESEMMEILSVLAKGDHSPVTRAAAACLDKAVEYGLIQPNQDGE” it was “failed”; in that of “MTYFFETYGCQMNQAESSSMEQILLEKGWTNSSDAEHCDLLIINTCSVRITAENRVLGRLGHFSGLKKKRKFFVLLIGCMAERLYTEIQKEFPLIDYVVGMFERNLLPQIFDEIKARLKNDNYMAEFTHDNIEEKPVSGYYFAPLSHSPKSFQSYVPIMNGCNNFCTYCIVPYVRGREVSRPVNEILQEITELSSRGVREITLLGQNVNSYKGEDGEGRLIDFPKLLTLIAREADKTDMIRWIRFMSSHPKDMSDALIDTIAAEKRLCKLVHLPVQHGSDTILKRMNRVYTIEHYKNRIKRLKETIPDIALSTDILMGFPGETEDDVKATLDLMQEIEFDSAFMYHYNPREGTKAFNYPDRIPEEVKIERLGRVIDLQLKITAKKMKAKLGKKVDILVESHSRNERSELFGHTEQGEMTVIQGNPPESLIGNFAHAELKELKGKTFRANLN”, “failed”; in that of “MTYFLYGNNFSSSILDTISYIIDWIIINMEPITLTLCLLVFAIVMFVWEKVPLAVTSMIVCVALVITGVLNIKQAFAGFIDTNVILFVAMFIVGGALFETGMANKVGGVITRFAKTEKQLIFTIMVVVGLMSGVLSNTGTAAVLIPVVIGVAAKSGFSRSRLLMPLVFAAALGGNLSLIGAPGNLIAQSALQNIGGGFGFFEYAKIGLPMLICGILYFLTIGYRFLPNNATGGEVGSVGEQRDYSHVPQWKQRLSLVVLIATILGMIFEKKIGVSLAVTGCIGALVLVVSGVLTEKQAYKAIDSQTIFIFGGTLALAKALEMTGAGKLVADYVIGMLGQNSSPFMLLIAVFALSVVMTNFMSNTATTALLVPVSLSIAAGMGADPRAVLMATVIGGSCAYATPIGMPANMMVLSAGGYKFVDYAKAGIPLIIVSTIVSLILLPILFPFHP”, “failed”.
On to “MTYVLYGIKACDTMKKARTWLDEHKVAYDFHDYKAVGIDREHLRRWCAEHGWQTVLNRAGTTFRKLDEAQKADLDEAKAIELMLAQPSMIKRPVLELGGRTLVGFKPDAYAAALA”, for which the protein production result was “not failed”.

Source of the values: a protein production outcome set (Wang et al. 2014).
